The source of these data is patent publication US20150125479A1.

The target in this assay is RSV fusion (F) glycoprotein (respiratory syncytial virus) (UniProt P12568). Description: SPR (Biacore); the partner is not named in the row, RSV F protein is taken from the legend of FIG. 4. Background: Surface plasmon resonance follows binding to a sensor surface in real time, without labels.

Turning to “NUMAX™ (motavizumab), MEDI-524 Mab (antibody)”, the Kd (usually a measure of binding affinity in units of concentration) worked out at 4 pM.
